From patent US9057062B2, “Enzyme produced by Arthrobacter globiformis” (MATSUTANI CHEMICAL INDUSTRY CO., LTD., priority 2011, dated 2015) come the findings set out here.

Format in all cases: biochemical, Arthrobacter globiformis M30
The target of data set [1] is ketose 3-epimerase (D-PE) (Arthrobacter globiformis, UniProt A0A1L7NQ96).
Substrate in data set [2]: O=C(CO)[C@@H](O)[C@H](O)[C@H](O)CO
The data set can be described thus: Km and Vmax of the present enzyme. Conditions: other: 30° C., in the presence of Mg2+ ions. Here is the method:
(§1) The enzyme reaction was performed at 30° C. for 30 min, and the amount of the enzyme that produced 1 micromole of D-fructose in 1 min under these conditions was taken as one unit. After the reaction, the reaction mixture was put in a boiling liquid for 3 min to quench the reaction. After deionization, the product D-fructose was measured by HPLC analysis. Protein measurement was performed by using the Bradford method, using 5 μL of the enzyme liquid added to a Bradford solution (250 μl) and evenly stirred therein.
(§2) The Km and Vmax of the present enzyme for D-psicose and D-fructose were measured. The measurement was made by measuring enzyme activity at 30° C. in the presence of Mg^2+ ions.

Substrate in data set [3]: O=C(CO)[C@H](O)[C@H](O)[C@H](O)CO
As to the kind of experiment: Km and Vmax of the present enzyme. The settings on record: other: 30° C., in the presence of Mg2+ ions. Here is the method:
as §1, §2

For `[Co+2]` [Co^2+, divalent cobalt ions], in data set [1], the “Effect of metal ion on enzyme activity” value is reported as “activatable”.

Take `[Mn+2]` [Mn^2+, divalent manganese ions]: in data set [1], the “Effect of metal ion on enzyme activity” value is listed as “activatable”.

B1: ketose 3-epimerase, purified enzyme (Arthrobacter globiformis) (protein)
chain: MKIGCHGLVWTGHFDAEGIRYSVQKTREAGFDLVEFPLMDPFSFDVQTAKSALAEHGLAASASLGLSDATDVSSEDPAVVKAGEELLNRAVDVLAELGATDFCGVIYSAMKKYMEPATAAGLANSKAAVGRVADRASDLGINVSLEVVNRYETNVLNTGRQALAYLEELNRPNLGIHLDTYHMNIEESDMFSPILDTAEALRYVHIGESHRGYLGTGSVDFDTFFKALGRIGYDGPVVFESFSSSVVAPDLSRMLGIWRNLWADNEELGAHANAFIRDKLTAIKTIELH
notes: disrupted with a high-pressure homogenizer to extract the enzyme; made in house; host or cells: Arthrobacter globiformis M30 (native producer); Purified by PEG fractionation, Q-Sepharose ion exchange and RESOURCE PHE hydrophobic chromatography
In general, Km refers to the concentration of substrate that gives half-maximal velocity. On to B1, for which, in data set [2], the Km amounted to 31.5 mM and the Vmax came out at 68.5 U/mg. Besides, in data set [3], the Km stood at 30.1 mM and the Vmax is given as 168 U/mg.
